Where no end group is shown, it is not given here. [ ]: non-standard residue; d: D form. The star is where a group is joined. Val(3-OH) = CC(C)(O)[C@H](N)C(=O)O; Tle = CC(C)(C)[C@H](N)C(=O)O; Ac6c = NC1(C(=O)O)CCCCC1; NHCH2tBu = CC(C)(C)CN*; Aib = CC(C)(N)C(=O)O; NHiPr = CC(C)N*; Sar = CNCC(=O)O

Assay in all cases: cell-based or functional assay
In assay [1] the target is T1, human angiotensin 2 type 1 receptor (human, UniProt P30556 1-359).
T1 sequence (looked up): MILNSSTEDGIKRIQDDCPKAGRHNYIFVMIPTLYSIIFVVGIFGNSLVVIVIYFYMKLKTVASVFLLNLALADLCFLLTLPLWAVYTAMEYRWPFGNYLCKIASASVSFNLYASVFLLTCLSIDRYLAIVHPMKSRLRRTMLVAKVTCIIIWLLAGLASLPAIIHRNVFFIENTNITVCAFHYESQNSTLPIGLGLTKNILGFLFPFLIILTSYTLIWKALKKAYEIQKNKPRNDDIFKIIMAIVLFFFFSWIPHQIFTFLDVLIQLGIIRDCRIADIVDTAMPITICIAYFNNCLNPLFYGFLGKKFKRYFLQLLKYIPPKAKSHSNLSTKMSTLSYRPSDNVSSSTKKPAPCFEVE

Assay [2] addresses T2, rat angiotensin 2 type 1 receptor (rat, UniProt P25095 1-359).
T2 sequence (looked up): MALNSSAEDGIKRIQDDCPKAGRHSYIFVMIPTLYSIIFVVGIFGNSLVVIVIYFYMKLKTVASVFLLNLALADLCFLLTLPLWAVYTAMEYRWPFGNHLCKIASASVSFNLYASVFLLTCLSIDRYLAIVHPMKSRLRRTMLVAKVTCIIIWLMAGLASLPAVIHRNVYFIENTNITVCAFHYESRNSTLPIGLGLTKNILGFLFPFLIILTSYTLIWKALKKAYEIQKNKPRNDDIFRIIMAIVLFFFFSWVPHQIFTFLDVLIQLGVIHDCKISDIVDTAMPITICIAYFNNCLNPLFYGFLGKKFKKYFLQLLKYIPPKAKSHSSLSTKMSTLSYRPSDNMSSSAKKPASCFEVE

Assay [3] has as its target T1, human angiotensin 2 type 1 receptor. This is another data set of the same source.
The target in assay [4] is T2, rat angiotensin 2 type 1 receptor. This is another data set of the same source.

Turning to [Sar]RVY[Ac6c]HP-NHCH2tBu [SEQ ID NO: 47 (Sar-Arg-Val-Tyr-cyHex-His-Pro-NH-neopentyl)], in assay [1], the “beta-arrestin2 assay EC50” value is > 3.2 nM, the “beta-arrestin2 assay Span” value was < 101 and the “beta-arrestin2 assay pEC50” value is < 8.5.
Turning to [Sar]RVYXHPT (not fully specified (residue 5); printed as Sar-Arg-Val-Tyr-AA01-His-Pro-Thr) [SEQ ID NO: 40 (Sar-Arg-Val-Tyr-AA01-His-Pro-Thr)], in assay [1], the “beta-arrestin2 assay EC50” value is > 3.2 nM, the “beta-arrestin2 assay Span” value is < 101 and the “beta-arrestin2 assay pEC50” value was < 8.5. In assay [2], the “beta-arrestin2 assay EC50” value is > 3.2 nM, the “beta-arrestin2 assay Span” value was < 105 and the “beta-arrestin2 assay pEC50” value was < 8.5.
Turning to [Sar]RVY[Ac6c]HP-NHEt [SEQ ID NO: 48 (Sar-Arg-Val-Tyr-cyHex-His-Pro-NH-ethyl)], in assay [1], the “beta-arrestin2 assay EC50” value is > 3.2 nM, the “beta-arrestin2 assay Span” value is < 101 and the “beta-arrestin2 assay pEC50” value was < 8.5. In assay [2], the “beta-arrestin2 assay EC50” value is > 3.2 nM, the “beta-arrestin2 assay Span” value was < 105 and the “beta-arrestin2 assay pEC50” value was < 8.5.
Turning to [Sar]RVY[Ac6c]HPC [SEQ ID NO: 34 (Sar-Arg-Val-Tyr-cyHex-His-Pro-Cys)], in assay [1], the “beta-arrestin2 assay EC50” value is > 3.2 nM, the “beta-arrestin2 assay Span” value is < 101 and the “beta-arrestin2 assay pEC50” value was < 8.5. Moreover, in assay [2], the “beta-arrestin2 assay EC50” value was > 3.2 nM, the “beta-arrestin2 assay Span” value is < 105 and the “beta-arrestin2 assay pEC50” value is < 8.5.
As for [Sar]RVY[Ac6c]HPK [SEQ ID NO: 50 (Sar-Arg-Val-Tyr-cyHex-His-Pro-Lys)], in assay [1], the “beta-arrestin2 assay EC50” value was > 3.2 nM, the “beta-arrestin2 assay Span” value was < 101 and the “beta-arrestin2 assay pEC50” value is < 8.5. Moreover, in assay [2], the “beta-arrestin2 assay EC50” value was > 3.2 nM, the “beta-arrestin2 assay Span” value is < 105 and the “beta-arrestin2 assay pEC50” value is < 8.5.
With [Sar]RVY[Ac6c]HPG [SEQ ID NO: 32 (Sar-Arg-Val-Tyr-cyHex-His-Pro-Gly)], in assay [1], the “beta-arrestin2 assay EC50” value was > 3.2 nM, the “beta-arrestin2 assay Span” value is < 101 and the “beta-arrestin2 assay pEC50” value was < 8.5. Further, in assay [2], the “beta-arrestin2 assay EC50” value was > 3.2 nM, the “beta-arrestin2 assay Span” value is < 105 and the “beta-arrestin2 assay pEC50” value was < 8.5.
For [Sar]RVY[Ac6c]HP[Aib] [SEQ ID NO: 35 (Sar-Arg-Val-Tyr-cyHex-His-Pro-AA01)], in assay [1], the “beta-arrestin2 assay EC50” value was > 3.2 nM, the “beta-arrestin2 assay Span” value is < 101 and the “beta-arrestin2 assay pEC50” value was < 8.5. For the same molecule, in assay [2], the “beta-arrestin2 assay EC50” value is > 3.2 nM, the “beta-arrestin2 assay Span” value is < 105 and the “beta-arrestin2 assay pEC50” value was < 8.5.
Consider [Sar]KVY[Ac6c]HPA [SEQ ID NO: 51 (Sar-Lys-Val-Tyr-cyHex-His-Pro-Ala)], for which, in assay [3], the “IP1 G-protein assay EC50” value was > 1.3 nM, the “IP1 G-protein assay Span” value was < 103 and the “IP1 G-protein assay pEC50” value was < 9.2. In assay [1], the “beta-arrestin2 assay EC50” value was > 3.2 nM, the “beta-arrestin2 assay Span” value was < 101 and the “beta-arrestin2 assay pEC50” value was < 8.5. In assay [2], the “beta-arrestin2 assay EC50” value was > 3.2 nM, the “beta-arrestin2 assay Span” value is < 105 and the “beta-arrestin2 assay pEC50” value was < 8.5.
In the case of [Sar]RVY[Ac6c]HPH [SEQ ID NO: 37 (Sar-Arg-Val-Tyr-cyHex-His-Pro-His)], in assay [4], the “IP1 G-protein assay EC50” value was > 0.6 nM, the “IP1 G-protein assay Span” value was < 104 and the “IP1 G-protein assay pEC50” value is < 9.2. Also, in assay [1], the “beta-arrestin2 assay EC50” value is > 3.2 nM, the “beta-arrestin2 assay Span” value was < 101 and the “beta-arrestin2 assay pEC50” value was < 8.5. For the same molecule, in assay [2], the “beta-arrestin2 assay EC50” value is > 3.2 nM, the “beta-arrestin2 assay Span” value was < 105 and the “beta-arrestin2 assay pEC50” value was < 8.5.

B1: SEQ ID NO: 52 (Sar-Arg-Val-D-Cys-Ile-His-Cys-D-Ala) (peptide)
peptide: [Sar]RV[dC]IHC[dA]
modifications: not fully specified; printed as Sar-Arg-Val-D-Cys-Ile-His-Cys-D-Ala; cysteine pairing not given here
For the molecule B1, in assay [1], the “beta-arrestin2 assay EC50” value was > 3.2 nM, the “beta-arrestin2 assay Span” value is < 101 and the “beta-arrestin2 assay pEC50” value is < 8.5. Also, in assay [2], the “beta-arrestin2 assay EC50” value was > 3.2 nM, the “beta-arrestin2 assay Span” value was < 105 and the “beta-arrestin2 assay pEC50” value was < 8.5.
[Sar]RVY[Tle]HPT [SEQ ID NO: 30 (Sar-Arg-Val-Tyr-AA02-His-Pro-Thr)]: in assay [1], the “beta-arrestin2 assay EC50” value is > 3.2 nM, the “beta-arrestin2 assay Span” value was < 101 and the “beta-arrestin2 assay pEC50” value was < 8.5. In assay [2], the “beta-arrestin2 assay EC50” value was > 3.2 nM, the “beta-arrestin2 assay Span” value is < 105 and the “beta-arrestin2 assay pEC50” value is < 8.5.
On to [Sar]RVY[Ac6c]HP-NHMe [SEQ ID NO: 49 (Sar-Arg-Val-Tyr-cyHex-His-Pro-NH-methyl)], for which, in assay [1], the “beta-arrestin2 assay EC50” value is > 3.2 nM, the “beta-arrestin2 assay Span” value is < 101 and the “beta-arrestin2 assay pEC50” value was < 8.5. In assay [2], the “beta-arrestin2 assay EC50” value is > 3.2 nM, the “beta-arrestin2 assay Span” value was < 105 and the “beta-arrestin2 assay pEC50” value was < 8.5.
Consider [Sar]RVY[Ac6c]HPE [SEQ ID NO: 43 (Sar-Arg-Val-Tyr-cyHex-His-Pro-Glu)], for which, in assay [1], the “beta-arrestin2 assay EC50” value is > 3.2 nM, the “beta-arrestin2 assay Span” value is < 101 and the “beta-arrestin2 assay pEC50” value was < 8.5. In assay [2], the “beta-arrestin2 assay EC50” value is > 3.2 nM, the “beta-arrestin2 assay Span” value is < 105 and the “beta-arrestin2 assay pEC50” value was < 8.5.
As to [Sar]RVY[Ac6c]HP[Val(3-OH)] [SEQ ID NO: 31 (Sar-Arg-Val-Tyr-cyHex-His-Pro-AA03)], in assay [1], the “beta-arrestin2 assay EC50” value is > 3.2 nM, the “beta-arrestin2 assay Span” value was < 101 and the “beta-arrestin2 assay pEC50” value was < 8.5. Further, in assay [2], the “beta-arrestin2 assay EC50” value was > 3.2 nM, the “beta-arrestin2 assay Span” value is < 105 and the “beta-arrestin2 assay pEC50” value is < 8.5.
For [Sar]RVY[Ac6c]HPN [SEQ ID NO: 36 (Sar-Arg-Val-Tyr-cyHex-His-Pro-Asn)], in assay [1], the “beta-arrestin2 assay EC50” value is > 3.2 nM, the “beta-arrestin2 assay Span” value was < 101 and the “beta-arrestin2 assay pEC50” value is < 8.5. For the same molecule, in assay [2], the “beta-arrestin2 assay EC50” value is > 3.2 nM, the “beta-arrestin2 assay Span” value was < 105 and the “beta-arrestin2 assay pEC50” value is < 8.5.
As to [Sar]RVY[Ac6c]HP-NHiPr [SEQ ID NO: 46 (Sar-Arg-Val-Tyr-cyHex-His-Pro-NH-i-Pr)], in assay [3], the “IP1 G-protein assay EC50” value was > 1.3 nM, the “IP1 G-protein assay Span” value was < 103 and the “IP1 G-protein assay pEC50” value was < 9.2. In addition, in assay [1], the “beta-arrestin2 assay EC50” value was > 3.2 nM, the “beta-arrestin2 assay Span” value was < 101 and the “beta-arrestin2 assay pEC50” value was < 8.5. In addition, in assay [2], the “beta-arrestin2 assay EC50” value is > 3.2 nM, the “beta-arrestin2 assay Span” value was < 105 and the “beta-arrestin2 assay pEC50” value was < 8.5.
Regarding [Sar]RVY[Ac6c]HP [SEQ ID NO: 41 (Sar-Arg-Val-Tyr-cyHex-His-Pro)], in assay [1], the “beta-arrestin2 assay EC50” value is > 3.2 nM, the “beta-arrestin2 assay Span” value was < 101 and the “beta-arrestin2 assay pEC50” value was < 8.5. Also, in assay [2], the “beta-arrestin2 assay EC50” value is > 3.2 nM, the “beta-arrestin2 assay Span” value was < 105 and the “beta-arrestin2 assay pEC50” value was < 8.5.
As to [Sar]RVY[Aib]HPV [SEQ ID NO: 33 (Sar-Arg-Val-Tyr-AA01-His-Pro-Val)], in assay [3], the “IP1 G-protein assay EC50” value was > 1.3 nM, the “IP1 G-protein assay Span” value is < 103 and the “IP1 G-protein assay pEC50” value is < 9.2. Also, in assay [1], the “beta-arrestin2 assay EC50” value is > 3.2 nM, the “beta-arrestin2 assay Span” value is < 101 and the “beta-arrestin2 assay pEC50” value is < 8.5. In addition, in assay [2], the “beta-arrestin2 assay EC50” value was > 3.2 nM, the “beta-arrestin2 assay Span” value is < 105 and the “beta-arrestin2 assay pEC50” value was < 8.5.
Turning to [Sar]RVY[Ac6c]HPR [SEQ ID NO: 42 (Sar-Arg-Val-Tyr-cyHex-His-Pro-Arg)], in assay [3], the “IP1 G-protein assay EC50” value is > 1.3 nM, the “IP1 G-protein assay Span” value is < 103 and the “IP1 G-protein assay pEC50” value is < 9.2. Further, in assay [1], the “beta-arrestin2 assay EC50” value is > 3.2 nM, the “beta-arrestin2 assay Span” value is < 101 and the “beta-arrestin2 assay pEC50” value was < 8.5. For the same molecule, in assay [2], the “beta-arrestin2 assay EC50” value was > 3.2 nM, the “beta-arrestin2 assay Span” value was < 105 and the “beta-arrestin2 assay pEC50” value is < 8.5.
[Sar]RVY[Tle]HPV [SEQ ID NO: 29 (Sar-Arg-Val-Tyr-AA02-His-Pro-Val)]: in assay [1], the “beta-arrestin2 assay EC50” value is > 3.2 nM, the “beta-arrestin2 assay Span” value is < 101 and the “beta-arrestin2 assay pEC50” value is < 8.5. In addition, in assay [2], the “beta-arrestin2 assay EC50” value was > 3.2 nM, the “beta-arrestin2 assay Span” value was < 105 and the “beta-arrestin2 assay pEC50” value is < 8.5.

The record behind these values is US20150105316A1 (TREVENA, published 2015).
